Experimental data reported in FireProtDB (doi:10.1016/0022-2836(92)90560-7).

B1: Ribonuclease, P00648 (parent)
chain: MMKMEGIALKKRLSWISVCLLVLVSAAGMLFSTAAKTETSSHKAHTEAQVINTFDGVADYLQTYHKLPDNYITKSEAQALGWVASKGNLADVAPGKSIGGDIFSNREGKLPGKSGRTWREADINYTSGFRNSDRILYSSDWLIYKTTDHYQTFTKIR

Variants of: B1
Conditions: Bacillus amyloliquefaciens, 25 °C, Urea, Fluorescence, MES/Tris 150 mM/150 mM/, NaCl 1 M, structure 1BNI, whole UniProt chain shown

Variant | ddG of mutation (higher = less stable) (pH 5.8) [kcal/mol] | denaturant m value (pH 5.8) [kcal/mol/M] | denaturant midpoint (higher = more stable) (pH 5.8) [M] | unfolding free energy (pH 5.8) [kcal/mol] | ddG of mutation (higher = less stable) (pH 9) [kcal/mol] | denaturant m value (pH 9) [kcal/mol/M] | denaturant midpoint (higher = more stable) (pH 9) [M] | unfolding free energy (pH 9) [kcal/mol]
W141Y | 1.27 | 1.98 | 4.96 | 9.73 | 0.99 | 2 | 4.29 | 8.42
W141L | 1.59 | 2 | 4.8 | 9.41 | 0.66 | 1.98 | 4.47 | 8.75
W141F | 1.06 | 1.89 | 5.07 | 9.94 | 0.6 | 2.01 | 4.5 | 8.81
H65G W141L | – | – | – | – | – | 1.8 | 4.96 | 9.72
H65G | 0.98 | 1.85 | 5.12 | 10 | -0.51 | 2.07 | 5.06 | 9.92
